According to doi:10.1101/2020.01.17.910273, “Ribosome association primes the stringent factor Rel for recruitment of deacylated tRNA to ribosomal A-site”:

Experiments:
Assay in all cases: EMSA; EMSA: HEPES:Polymix buffer, 5 mM Mg2+, 0.1 uM tRNA or mRNA(MVF), with or without 1 uM mRNA(MVF) competitor, 5 min at 37 C; pH not in material
Conditions in all cases: protein: recombinant; single strand
[1] = biological target: Rel TGS-Helical (Bacillus subtilis, UniProt O54408 374-583)
[2] = biological target: Rel NTD (Bacillus subtilis, UniProt O54408 1-373)
Rel NTD, sequence (O54408 1-373): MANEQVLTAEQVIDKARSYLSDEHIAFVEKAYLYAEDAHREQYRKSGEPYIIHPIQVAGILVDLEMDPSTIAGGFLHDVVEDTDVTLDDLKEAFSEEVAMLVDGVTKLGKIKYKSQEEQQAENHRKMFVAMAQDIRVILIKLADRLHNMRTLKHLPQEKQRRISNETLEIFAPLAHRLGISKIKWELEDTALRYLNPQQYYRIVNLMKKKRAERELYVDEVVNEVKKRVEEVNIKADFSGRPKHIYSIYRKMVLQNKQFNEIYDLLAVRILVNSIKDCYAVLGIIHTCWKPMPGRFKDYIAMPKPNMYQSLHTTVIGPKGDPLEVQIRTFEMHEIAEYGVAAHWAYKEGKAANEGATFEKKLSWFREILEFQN

[3] = biological target: Rel (Bacillus subtilis, UniProt O54408 1-734)
Rel, sequence (O54408 whole entry): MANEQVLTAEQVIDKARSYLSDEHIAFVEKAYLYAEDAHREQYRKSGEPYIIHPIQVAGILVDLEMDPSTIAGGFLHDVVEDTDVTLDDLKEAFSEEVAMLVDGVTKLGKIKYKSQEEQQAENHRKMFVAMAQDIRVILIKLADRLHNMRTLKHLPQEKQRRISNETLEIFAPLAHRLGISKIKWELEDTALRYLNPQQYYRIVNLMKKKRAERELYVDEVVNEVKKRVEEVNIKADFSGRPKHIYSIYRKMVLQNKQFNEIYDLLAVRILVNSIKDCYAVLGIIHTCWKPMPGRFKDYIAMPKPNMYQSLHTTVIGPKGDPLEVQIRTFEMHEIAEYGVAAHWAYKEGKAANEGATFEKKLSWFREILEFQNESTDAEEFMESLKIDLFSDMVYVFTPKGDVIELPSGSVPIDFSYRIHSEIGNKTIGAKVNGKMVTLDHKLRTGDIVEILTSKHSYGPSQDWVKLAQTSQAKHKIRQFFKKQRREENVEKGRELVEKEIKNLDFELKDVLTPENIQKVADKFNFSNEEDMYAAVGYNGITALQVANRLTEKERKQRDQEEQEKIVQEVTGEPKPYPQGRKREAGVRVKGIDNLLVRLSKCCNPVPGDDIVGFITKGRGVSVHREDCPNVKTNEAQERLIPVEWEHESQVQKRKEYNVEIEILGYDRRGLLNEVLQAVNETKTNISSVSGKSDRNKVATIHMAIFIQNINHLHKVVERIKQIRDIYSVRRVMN

Rel TGS-Helical, sequence (O54408 374-583): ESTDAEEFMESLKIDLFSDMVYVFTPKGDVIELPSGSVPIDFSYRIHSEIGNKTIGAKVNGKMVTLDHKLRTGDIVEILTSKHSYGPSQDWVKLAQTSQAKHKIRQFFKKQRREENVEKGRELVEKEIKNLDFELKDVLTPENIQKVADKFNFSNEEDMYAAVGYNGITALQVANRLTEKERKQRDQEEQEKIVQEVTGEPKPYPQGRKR

B1: mRNA(MVF) (ssRNA)
RNA: GGCAAGGAGGAGAUAAGAAUGGUUUUCUAAUA
binding result [1]: no binding | apparent K (half saturation) [2]: 680 ± 30 nM | apparent K (half saturation) [3]: 490 ± 10 nM
